# From article PMC8299219 (Cell, 2021)
# B1: C102A5 (antibody, V domains shown)
# VH: QVQLVESGGGVVQPGRSLRLSCAASGFTFSTYAMHWVRQAPGKGLEWVAVISYDGSNKYYADSVKGRFTISRDNSKNTLYLQMNSLRAEDTAVYYCARDLGTYRWFDPWGQGTLVTVSS
# VL: DIQMTQSPSSVSASVGDRVTITCRASQGISSWLAWYQQKPGKAPKLLIYAASSLQSGVPSRFSGSGSGTDFTLTISSLQSEDFATYYCQQANSFPSFTFGPGTKVEIK
# B2: C12E6 (antibody, V domains shown)
# VH: QVQLQESGSGLVKPSQTLSLTCAVSGGSISSGGYSWSWIRQPPGKGLEWIGYIYHSGSTYYNPSLKSRVTISVDRSKNQFSLKLSSVTAADTAVYYCARSGFLEWLRRVDAFDIWGQGTMVTVSS
# VL: QSALTQPASVSGSPGQSITISCTGTSSDVGGYNYVSWYQQHPGKAPKLMIYDVSNRPSGVSNRFSASKSGNTASLTISGLQAEDEADYYCSSYTSSSTRVFGGGTKLTVL
# B3: C163D5 (antibody, V domains shown)
# VH: EVQLVESGGGLVQPGGSLRLSCAASGFTFSSYWMHWVRQAPGKGLVWVSRTNSDGSSTNYADSVKGRFTISRDNAKNTLYLQMNSLRAEDTAVYYCARPQFYVWGSDRADYGMDVWGQGTTVTVSS
# VL: QSALTQPASVSGSPGQSITISCTGTSSDVGGYNSVSWYQQHPGKAPKLMIYEVSNRPSGVSNRFSGSKSGNTASLTISGLQAEDEADYYCSSYRSSSTLVFGGGTKLTVL
# B4: C882C6 (antibody, V domains shown)
# VH: QVQLVESGGGVVQPGRSLRLSCAASGFTFSNFAIHWVRQAPGKGLEWVAVVSYDGGNKYYADSVKGRFTISRDNSKNTLYLQMNSLRAEDTSVYYCARSGSGNYYGWFDPWGQGTLVTVSS
# VL: QSALTQPASVSGSPGQSITISCTGTSSDVGSYNLVSWYQQHPGKAPKLMIYEGSKRPSGVSNRFSGSKSGNTASLTISGLQAEDEADYYCCSYAGSSTWVFGGGTKLTVL
# B5: C30A8 (antibody, V domains shown)
# VH: QVQLVESGGGLVKPGGSLRLSCAASGFTFSDSYMSWIRQAPGKGLEWVSYISSSSSYTNYADSVKGRFTISRDNAKNSLYLQMNSLRAEDTAVYYCARDRVPPYSSGWYYFDYWGQGTLVTVSS
# VL: QSALTQPASVSGSPGQSITISCTGTSSDVGGYNYVSWYQQHPGKAPKLMIYEVSNRPSGVSNRFSGSKSDNTASLTISGLQAEDEADYYCSSYTSSSTYVFGTGTKVTVL
# B6: G32B2 (antibody, V domains shown)
# VH: QLQLQESGPGLVKPSETLSLTCTVSGGSISSSSYYWGWIRQPPGKGLEWIGSIYYSGSTYYNPSLKSRVTISVDTSKNQFSLKLSSVTAADTAVYYCARTVASYYDSSAYLTLGYFDYWGQGTLVTVSS
# VL: SYELTQPPSVSVSPGQTARITCSGDALPKKYAYWYQQKSGQAPVLVIYEDSKRPSGIPERFSGSSSGTMATLTISGAQVEDEADYYCYSTDSSGNHNYVFGTGTKVTVL
# B7: C93E12 (antibody, V domains shown)
# VH: QVQLVEAGGGVVQPGTSLRLSCAASGFTFSNYAIQWVRQAPGKGPEWVALISYDGSNKYYADPVKGRFTLSRDNSKNTLYLQMNSLRAEDTAVYYCARGIRGGYNDAFDIWGQGTMVTVSS
# VL: DIQLTQSPSFLSASVGDRVTITCRASQGISSYLTWYQQKPGKAPKLLIYAASTLQSGVPSRFSGSGSGTEFTLTISSLQPEDFATYYCQQVTSYPITFGQGTRLEIK
# B8: C83B10 (antibody, V domains shown)
# VH: QVQLVESGGGVVQPGRSLRLSCAASGFTFSIYAIHWVRQAPGKGLEWVALISYDGSNKYYADSVKGRFTISRDNSKNTLYLQMNSLRAEDTAVYYCARARGGSYSDAFDIWGQGTMVTVSS
# VL: not shown
# B9: G32M2 (antibody, V domains shown)
# VH: QVQLVESGGGVVQPGRSLRLSCAASGFTFSSYAMHWVRQAPGKGLEWVAVISYDGNNKYYADSVKGRFTISRDNSKNTLYLQMNSLRAEDTAMYYCARAKGGGYYYGMDVWGQGTTVTVSS
# VL: SYELTQPPSVSVAPGQTARITCGGNNIGSKSVHWYQQKPGQAPVLVVYDDSDRPSGIPERFSGSNSGNTATLTISRVEAGDEADYYCQVWDSSSDPYWVFSGGTKLTVL
# B10: C81C3 (antibody, V domains shown)
# VH: EVQLVQSGAEVKKPGESLRISCKGSGYSFTSYWISWVRQMPGKGLEWMGRIDPSDSYTNYSPSFQGHVTISADKSISTAYLQWSSLKASDTAMYYCAIHGYYDSSGYYLPHGFDIWGQGTMVTVSS
# VL: SYELTQPPSVSVAPGKTARITCGGNNIGSTSVHWYQQKPGQAPVLVVYDDGDRPSGIPERFSGSNSGNTATLTISRVEAGDEADYYCQVWDSSSDPNWVFGGGTKLTVL
# B11: C7I5 (antibody, V domains shown)
# VH: EVQLLESGGGLVQPGGSLRLSCAASGFIFSNYVVSWVRQAPGKGLEWVSGISVNGDTTFYADSVKGRFTISRDNSKNTLYLQMNSLRAEDTAVYYCAKVRGYCSGGRGCMDVWGQGTTVTVSS
# VL: DIQLTQSPSSLSPSVGDRVTITCRASQDIGNTLAWYQQKPGKAPNLLIYDASSLQSGVPSRFSGTVSGTDFTLTITSLQPEDFATYFCQQFNTYPALTFGGGTKVEIK
# B12: C81E9 (antibody, V domains shown)
# VH: QVQLVESGGGVVQPGRSLRLSCAASGFTFSSYAMHWVRQAPGKGLEWVAVISYDGSNKYYADSVKGRFTISRDNSKNTLFLQMNSLRPEDTAVYYCIAARNYYYMDVWGKGTTVTVSS
# VL: not shown
# B13: G32L8 (antibody, V domains shown)
# VH: EVQLVQSGAEVKKPGESLKISCKGSGYSFTSYWIGWVRQMPGKGLEWMGIIYPGDSDTRYSPSFQGQVTISADKSISTAYLQWSSLKASDTAMYYCARRYAVYSSGWYYWYFDLWGRGTLVTVSS
# VL: not shown
# B14: C12I7 (antibody, V domains shown)
# VH: QVQLQESDPGLVQPSETLSLTCTVSRGSISSYYWSWIRQPPGKGLEWIGYIYYSGSTNYNPSLKSRVTISVDTSKNQFSLKLSSVTAADTAVYYCARVGYYDSSAYLKLGSIDYWGQGILVTVSS
# VL: not shown
# B15: G32C5 (antibody, V domains shown)
# VH: QVQLVESGGGVVQPGRSLRLSCAASGFTFSSYAMHWVRQAPGKGLEWVAVISYDGSNKYYADSVKGRFTISRDNSKNTLYLQMNSLRAEDTAVYYCARGKSGSYFGSFDYWGQGTLVTVSS
# VL: not shown
# B16: C81H4 (antibody, V domains shown)
# VH: QVQLVESGGGVVQPGRSLRLSCAASGFTFSSYGMHWVRQAPGKGLEWVAVISYDGSNKYYADSVKGRFTISRDNSKNTLCLQMNSLRAEDTAVYYCAKGRGGSYYDAFDIWGQGTMVTVSS
# VL: not shown
# B17: C12B8 (antibody, V domains shown)
# VH: QVQLVESGGGVVQPGRSLGLSCAASGFTFSSYAMHWVRQAPGKGLEWVAVISYDGSNKADSVKGRFTISRDNSNNTLYLQMNSLRAEDTAVYYCAREGVVVTAPLDYWGQGTLVTVSS
# VL: not shown
# B18: C102B1 (antibody, V domains shown)
# VH: QVQLVQSGAEVKKPGSSVKVSCKASGGTFSSYAISWVRQAPGQGLEWMGGIIPIFGTANYAQKFQGRVTITADESTSTAYMELSSLRSEDTAVYCCARDRGYCTGGVCSNYYYGIDVWGQGTTVTVSS
# VL: EIVLTQSPATLSLSPGERATLSCRASQSVSSYLAWYQQKPGQAPRLLIYDASNRATGIPARFSGSGSGTDFTLTISSLEPEDFAVYYCQQRSNWPPSYTFGQGTKLEIK
# Biological target: SARS-CoV-2 S ectodomain trimer, prefusion-stabilized, 2P variant (Wrapp et al., 2020) (SARS-CoV-2, Wuhan-Hu-1, UniProt P0DTC2, stabilised)
row,Binder,binding result
1,B1,binds
2,B2,binds
3,B3,binds
4,B4,binds
5,B5,binds
6,B6,binds
7,B7,binds
8,B8,binds
9,B9,binds
10,B10,binds
11,B11,binds
12,B12,binds
13,B13,binds
14,B14,binds
15,B15,binds
16,B16,binds
17,B17,binds
18,B18,binds
